# Assay results taken from patent publication US20150183839A1, “SOYBEAN NODULATION REGULATORY PEPTIDES AND METHODS OF USE” (priority 2010, published 2015).
# Entries after “also recorded” stand apart in the source; their conditions may differ.
# B1: CLE80: Glycine max CLE protein, SEQ ID NO:7; rhizobia inoculation induced CLE (protein)
# chain: MGNTSATLVPILALIMFSTFFMTLQARSLHGHNPLFAHKKVVDIQNFLHKSGIHLSKRVRIPFGDDLPLAPADRLAPGGPDPQHNVRAPPRKP
# modifications: Glycine max
# B2: CLE60: Glycine max CLE protein, SEQ ID NO:6; nitrate induced CLE acting locally in the root (protein)
# chain: MLEALGEMANAKQVLCLILLVLLFSKLESRSLEAFIEGKKTLAKGCSRELIEKSQLLKASFAKATTRFTNPRVSKRLSPGGPDQKHH
# modifications: Glycine max
# notes: nitrate induced CLE acting locally in the root
# B3: CLE30: Glycine max CLAVATA3/ESR-related (CLE) protein, SEQ ID NO:5; rhizobia induced CLE, over-expressed in transgenic hairy roots (protein)
# chain: MANATMATRVSILIALIILSTFFMTLQASNLHGHPFIRENNIADSHHFLHKYLDDLSKHIHVQDADDAPHKDGNTHRLAPEGPDPHHNFATPPRN
# modifications: Glycine max
# notes: rhizobia induced CLE, over-expressed in transgenic hairy roots
# Assays:
# [1] = tested on: CLE30, CLE60 and CLE80 gene expression in soybean root; experiment: RT-qPCR of CLE gene expression in soybean roots after nitrogen source treatment; assay type: in vivo, Glycine max; settings: for expression of CLE30 and CLE80 in roots / CLE60 expression in roots: 10 mM for two weeks; for expression of CLE30 and CLE80 in roots: relative to KCl control; for CLE60 expression in roots: relative to control
# Method: FIG. 15. To test if CLE60 (GmNIC1) is induced by alternative nitrogen sources we treated soybeans with 10 mM solutions of the following chemicals for two weeks prior to harvesting root tissue to analyse gene expression: Ammonium Chloride (NH4Cl), Potassium Nitrate (KNO3) and Potassium Chloride control (KCl).
# (§1) Soybean (Glycine max) lines used include the wild type Williams and its isogenic supernodulating nark mutant lines, nod4 and nod3-7 and the wild type Bragg and its isogenic hypernodulating nark mutant line, nts1116. Plants were grown in controlled glasshouse conditions (28° C./26° C. day/night, 16 hour day) in autoclaved pots and vermiculite where sterile growing conditions were required. Seeds requiring sterilisation were treated with 70% ethanol, 3% H2O2 for 1 min, followed by several rinses with water. Plants were watered as required with a modified nutrient solution lacking nitrogen (Herridge, 1982). Plants were inoculated with approximately OD600 0.01 Bradyrhizobium japonicum CB1809 or the corresponding NF mutant nodU grown in yeast-mannitol broth (YMB) at 28° for two days. For nitrate treatments, plants were watered with the indicated solutions of KNO3 every two days. For grafting experiments, reciprocal grafting was carried out 8 d after sowing and the graft unions were allowed to recover for 6 d before B. japonicum inoculation. Nodulation was scored three weeks after inoculation.
# For gene expression analyses, tissue was snap frozen and homogenized in liquid nitrogen using a mortar and pestle. RNA was extracted using TRIzol reagent according to the manufacturer's instructions (Invitrogen). DNAse treatment (Fermentas, Ontario) was performed on 1 μg of RNA in the presence of MgCL2. cDNA was synthesised with SuperScript III (Invitrogen) from 0.5 μg DNAse treated RNA. RT-qPCR was conducted using an ABI 7900HT cycler in 384 well plates with SYBR green fluorescence detection. All reactions were performed in duplicate for at least three biological replicates using intron-spanning primers where possible and a target amplicon of approximately 100 bp (full primer sequences are included in Table 2). Gene expression values were calculated relative to ATP synthase after normalisation for PCR efficiency and plot correlation (R2) values of each primer pair as determined by LinRegPCR 7.5 (Ramakers et al., 2003).
# In a preliminary study to determine if nitrate can induce the expression of the soybean CLE genes, root tissue was harvested after treatment with either 0 mM (water control) or 10 mM KNO3 for two weeks. […] A more thorough study to identify the induction of CLE60 expression by nitrate was subsequently performed using, root tissue harvested at 0, 8 or 24 h after the commencement of the above treatments.
# Soybean plants were treated with either 0, 2, 5, 10 or 15 mM KNO3 for 2 days prior to, and for 2 weeks following, rhizobia inoculation. The treated plants were then harvested simultaneously for RT-qPCR and nodule count studies.
# [2] = tested on: soybean nodulation; experiment: Nodule numbers of soybean plants treated with KNO3 (incl. grafted plants); assay type: in vivo, Glycine max
# Method: as §1
# Soybean plants were treated with either 0, 2, 5, 10 or 15 mM KNO3 for 2 days prior to, and for 2 weeks following, rhizobia inoculation. The treated plants were then harvested simultaneously for RT-qPCR and nodule count studies. […]
# [3] = tested on: Medicago truncatula nodulation; settings: cited from earlier work
# [4] = tested on: soybean nodulation; experiment: Over-expression of CLE genes in transgenic soybean hairy roots, nodule number (Example 1); assay type: in vivo, Glycine max; settings: for NARK/SUNN/HAR1 dependent inhibition / Systemic activity: Glycine max; for nodulation (nodule number) on over-expression: vs vector-only control
# Method: as §1
# The full length CDS of CLE30, CLE60 and CLE80 was directionally cloned into the pKANNIBAL vector for expression of RNAi constructs (Wesley et al., 2001). Pfu polymerase (Stratagene, La Jolla, Calif.) was used to amplify PCR products incorporating restriction nuclease sites from cDNA samples shown to express the target gene. XhoI/EcoRI (for) and KpnI (rev) restriction sites were included in the primer sequences depending on internal restriction sites of each gene (full primer sequences are included in Table 2). Likely clones were confirmed by direct DNA sequencing and capillary separation. Constructs were sub-cloned into p15SRK2 or pM1KCK1 integration vectors (A. Kereszt, unpublished) as a NotI fragment before tri-parental mating to introduce the constructs into Agrobacterium rhizogenes K599. For transgenic root verification in the CLE60 over-expression experiments the DsRed reporter was subcloned into pM1KCK1 from pHairyRed, which is a modified version of pCAMBIA (M-H Lin, P M Gresshoff, B J Ferguson, unpublished). Tri-parental mating was used to introduce DsRed into A. rhizogenes K599 carrying the CLE60 construct. A. rhizogenes were subsequently used for the induction of transgenic soybean hairy roots according to Kereszt et al (2007).
# To determine if the soybean CLE peptides regulate nodulation in a NARK-dependent manner, a reverse-genetics approach using a hairy-root transformation system was used. Over-expression of a systemic Q signal would be expected to inhibit nodulation, even in non-transformed roots. To test this, the complete CDS of CLE30, CLE60 or CLE80 was cloned into the pKANNIBAL vector for the expression of efficient RNAi constructs (Wesley et al., 2001). However, to generate over-expressing constructs, the antisense construct was omitted and the Pdk intron of pKANNIBAL was left intact. Previous studies have shown the inclusion of an intron can lead to higher and more consistent expression levels in transgenic plants (Norris et al., 1993).
# Tri-parental mating was used to integrate the constructs into Agrobacterium rhizogenes K599 which induces the formation of transgenic hairy roots in soybean (Kereszt et al., 2007).
# [5] = tested on: G. soja nodulation; experiment: Overexpression of GmRIC1 in hairy roots of G. soja, nodules counted; assay type: in vivo, Glycine soja; settings: WT G. soja, vs vector only
# Method: (§2) Transformation was done using the hairy root method. Agrobacterium rhizogenes containing a vector with the RIC1 gene (CLE30) and 35s promoter was injected into the stems of young plants. Once transgenic ‘hairy roots’ began growing from the stems the primary roots were removed and the plants with the transgenic roots were replanted and inoculated with the appropriate rhizobia strain.
# (§3) All plants were grown in and in 30 well seed trays of grade 3 vermiculite. G. soja seeds were scarified and soaked in MQ H2O before planting. All plants were grown in growth cabinets under 16 h day and 8 h night conditions. P. vulgaris and G. max were grown at 28° C. G. soja were grown at 24° C. All plants were fertilised with a no nitrogen fertiliser and B&D solution (Broughton & Dilworth 1971).
# A. rhizogenes K599 with either p15SRK2::GmRIC1 ox or p15SRK2 were grown on LB media (10 g/L Tryptone, 5 g/L Yeast extract, 10 g/L NaCl) for 2 days at 28° C. The bacteria were harvested by scraping it from the agar plate. The harvested bacteria were suspended in 3 mL MQ H2O, ensuring no lumps remained. […]
# Once root tips were visible at the point of infection, the primary roots of the plants were removed and the hairy roots were re-planted. […] After 2-3 weeks plants were uprooted and the nodules counted.
# [6] = tested on: P. vulgaris nodulation; experiment: Overexpression of GmRIC1 in hairy roots of P. vulgaris, nodules counted; assay type: in vivo, Phaseolus vulgaris; settings: vs vector only
# Method: as §2, §3
# (§4) A. rhizogenes K599 with either p15SRK2::GmRIC1 ox or p15SRK2 were grown on LB media (10 g/L Tryptone, 5 g/L Yeast extract, 10 g/L NaCl) for 2 days at 28° C. The bacteria were harvested by scraping it from the agar plate. The harvested bacteria were suspended in 3 mL MQ H2O, ensuring no lumps remained.
# (§5) When all plants had unfolded cotyledons they were injected at the hypocotyl as close to the junction of the cotyledons as possible with the A. rhizogenes solutions (Kereszt et al, 2007; Estrada-Navarrete, 2006). Half of each of the WT and mutant lines received A. rhizogenes p15SRK2+GmRIC1 OX and the other half of the plants received A. rhizogenes p15SRK2; Totalling 4 treatment groups.
# (§6) The infection technique was the same for all species using A. rhizogenes K599. To increase the likelihood of the K599 producing hairy roots, the A. rhizogenes was inoculated with 1 mL 200 μM acetosyringone one hour prior to harvesting the bacteria. After infection all seed trays were misted with H2O, covered and sealed to ensure high humidity.
# Once root tips were visible at the point of infection, the primary roots of the plants were removed and the hairy roots were re-planted. Plants were left in the growth cabinets for one week to form an adequate root system. The plants were subsequently transferred to the glasshouse and re-potted into larger pots. After re-potting plants were also inoculated with the appropriate strain of rhizobia for that particular species. Plants were watered and fertilised with B&D solution (Broughton & Dilworth 1971). After 2-3 weeks plants were uprooted and the nodules counted.
# [7] = tested on: G. max nodulation; experiment: Overexpression of GmRIC1 in hairy roots of G. max, nodules counted (Example 2); assay type: in vivo, Glycine max; settings: vs empty vector; for nodulation on overexpression: G. max WT (Williams)
# Method: as §2, §3, §4, §5, §6
# Once root tips were visible at the point of infection, the primary roots of the plants were removed and the hairy roots were re-planted. Plants were left in the growth cabinets for one week to form an adequate root system. […] After 2-3 weeks plants were uprooted and the nodules counted.
# [8] = nod4 supernodulation nark mutant plants
# [9] = wild-type (Williams) soybean, transgenic hairy roots
molecule,measurement,setting,value
"O=[N+]([O-])[O-].[K+] [KNO3, Potassium Nitrate]",CLE30 expression in roots,[1]; 10 mM KNO3 for two weeks vs 0 mM water control,unchanged
same,expression of CLE30 and CLE80 in roots,[1],not that of CLE80 or CLE30
same,CLE60 expression in roots,[1],significantly induced expression of CLE60
same,KNO3 level at which CLE60 was significantly induced (as low as),[1]; 2 days prior to and 2 weeks following rhizobia inoculation,2 mM
same,nodule numbers with KNO3 concentration,"[2]; 0, 2, 5, 10 or 15 mM KNO3, 2 weeks after inoculation",reduced in an inverse manner
same,nodule numbers of grafted plants,"[2]; 5 mM or 10 mM KNO3, WT scion, wild-type rootstock compared to nod4 mutant rootstock",reduced significantly
"Cl.N [NH4Cl, Ammonium Chloride]",expression of CLE30 and CLE80 in roots,[1],did not affect expression
same,CLE60 expression in roots,[1],induced expression of CLE60
"CLE13: Medicago truncatula CLE peptide reported to reduce nodulation (Mortier et al., 2010) (LRDHPLIHKNIDSRSLLQKLRIHISNHKQVRDISGDRLSPAGPDPQHNGRSPPRK; UniProt G7JV15 30-84, looked up)",NARK/SUNN/HAR1 dependent inhibition,[3],partial
same,Systemic activity,[3],yes
"CLE12: Medicago truncatula CLE peptide reported to reduce nodulation (Mortier et al., 2010) (LEGGSNIDSQRLLHELMVDRIKQKRSRTDLEDKAVPGDRLSPGGPNHIHN; UniProt G7ZZZ3 32-81, looked up)",NARK/SUNN/HAR1 dependent inhibition,[3],partial
same,Systemic activity,[3],yes
B1,NARK/SUNN/HAR1 dependent inhibition,[4],yes
same,Systemic activity,[4],yes
same,nodulation (nodule number) on over-expression,[4]; [8],no reduction in the nodule numbers; also recorded: complete lack of nodule inhibition; also recorded: nodule numbers were not reduced
same,nodulation (nodule number) on over-expression,[4]; [9],completely abolishes soybean nodulation; also recorded: completely eliminated nodulation; also recorded: eliminated nodulation completely; also recorded: nodules were eliminated
B2,NARK/SUNN/HAR1 dependent inhibition,[4],yes
same,Systemic activity,[4],no
same,nodulation (nodule number) on over-expression,[4]; [8],no corresponding reduction in nodulation; also recorded: nodule numbers were not reduced
same,reduction in nodulation,"[4]; over-expression, wild-type soybean",~50%
same,nodulation (nodule number) on over-expression,[4]; [9],only partially reduces nodulation; also recorded: reduced nodulation by approximately half; also recorded: nodules were reduced or partially eliminated
B3,nodulation on overexpression,[5],inhibits nodulation
same,nodulation on overexpression,[5]; listed as GmRIC1,completely inhibited nodulation; also recorded: complete inhibition of nodulation
same,nodulation on overexpression,[6]; P. vulgaris R32 supernodulation (AON) mutant,no effect
same,nodulation on overexpression,"[6]; P. vulgaris R32 supernodulation (AON) mutant, listed as GmRIC1",no significant effect
same,nodulation on overexpression,[6]; P. vulgaris WT cv. OAC RICO,inhibits nodulation
same,nodulation on overexpression,"[6]; P. vulgaris WT cv. OAC RICO, listed as GmRIC1",inhibition of nodulation
same,nodulation on overexpression,[7],inhibits nodulation
same,nodulation on overexpression,[7]; listed as GmRIC1,completely inhibits nodulation
same,nodule numbers on overexpression,[7]; G. max nod4 lacking functional NARK,nodule numbers were unchanged
same,NARK/SUNN/HAR1 dependent inhibition,[4],yes
same,Systemic activity,[4],yes
same,nodulation (nodule number) on over-expression,[4]; [8],no reduction in the nodule numbers; also recorded: complete lack of nodule inhibition; also recorded: nodule numbers were not reduced
same,nodulation (nodule number) on over-expression,[4]; [9],completely abolishes soybean nodulation; also recorded: completely eliminated nodulation; also recorded: eliminated nodulation completely; also recorded: nodules were eliminated
